Assay results reported in publication PMC5431086, “The Rational Design of Therapeutic Peptides for Aminopeptidase N using a Substrate-Based Approach” (Scientific Reports, 2017).
Starred links: 1 amine or outer side, 2 acyl side, 3 side chain; linkers in the order of their positions; H or OH if unused. Positions of bridges follow the written chain, without caps; N, C: chain ends. No end group written: not given here. *: point of attachment. Suc = O=C(CCC(=O)[*:2])[*:1]; Cbz = O=C(OCc1ccccc1)*; For = O=C*

molecular target: aminopeptidase N on the surface of PC3 cells (human (endogenous in PC3)) (UniProt P15144); experiment: not given
Sequence (P15144 whole entry): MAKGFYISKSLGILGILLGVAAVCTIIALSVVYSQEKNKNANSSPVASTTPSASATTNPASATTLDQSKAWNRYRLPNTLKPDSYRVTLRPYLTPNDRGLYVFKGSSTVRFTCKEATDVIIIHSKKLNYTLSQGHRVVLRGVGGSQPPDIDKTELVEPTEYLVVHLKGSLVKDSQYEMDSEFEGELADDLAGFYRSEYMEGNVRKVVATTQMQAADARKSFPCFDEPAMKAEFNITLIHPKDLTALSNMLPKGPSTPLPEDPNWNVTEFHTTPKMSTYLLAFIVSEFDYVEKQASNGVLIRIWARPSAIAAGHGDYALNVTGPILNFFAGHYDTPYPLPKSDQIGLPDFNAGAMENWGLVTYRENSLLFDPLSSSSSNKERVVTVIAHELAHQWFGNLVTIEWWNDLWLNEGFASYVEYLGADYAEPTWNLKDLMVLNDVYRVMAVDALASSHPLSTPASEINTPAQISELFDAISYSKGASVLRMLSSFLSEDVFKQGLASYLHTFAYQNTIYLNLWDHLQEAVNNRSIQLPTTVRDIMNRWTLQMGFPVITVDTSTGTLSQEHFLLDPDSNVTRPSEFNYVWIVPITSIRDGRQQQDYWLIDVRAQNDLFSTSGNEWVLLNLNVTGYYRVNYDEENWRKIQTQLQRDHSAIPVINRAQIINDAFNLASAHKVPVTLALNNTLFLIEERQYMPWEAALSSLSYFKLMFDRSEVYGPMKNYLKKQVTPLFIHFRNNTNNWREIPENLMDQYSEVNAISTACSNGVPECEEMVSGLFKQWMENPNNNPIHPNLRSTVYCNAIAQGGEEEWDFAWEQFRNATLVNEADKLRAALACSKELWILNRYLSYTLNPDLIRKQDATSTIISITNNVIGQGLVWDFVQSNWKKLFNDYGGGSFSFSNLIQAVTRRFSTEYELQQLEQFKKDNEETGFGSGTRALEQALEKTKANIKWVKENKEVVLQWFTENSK

tumor volume of PC3 xenografts at day 35, mice treated with 40 mg/kg cyc-LHSPW t.i.w. x4 (saline and cyc-NGR arms >1000 mm^3) [mm^3]	Binder
309	CLHSPWC (disulfide 1-7) [cyc-LHSPW]

molecular target: chymotrypsin; experiment: enzyme inhibition assay (panel of proteases); cyc-LHSPW tested against a panel of cancer-associated proteases (Fig. 5A); conditions not given

Ki [µM]	Binder
> 100	CLHSPWC (disulfide 1-7) [cyc-LHSPW]

molecular target: recombinant human aminopeptidase N (hAPN) (human) (UniProt P15144); experiment: enzyme inhibition assay (competition with the fluorogenic substrate H-Ala-AMC); 0.1 μM APN, 100 μM H-Ala-AMC, 100 mM Tris pH 7.2, Brij 35 0.0002% w/v, 37 °C, triplicate; inhibition competitive, Ki from the IC50 by the Cheng-Prusoff equation

Binder	IC50 [µM]	Ki [µM]
ADARK	> 500	–
FDWWG	> 500	–
AHLFN	> 500	–
EHSPW	115	–
Ac-LHSPW [Ac-LHSPW]	–	> 500
Cbz-LHSPW [Cbz-LHSPW]	–	> 500
AHSTF	> 500	–
Ac-HSPW [Ac-HSPW]	–	> 500
FYLRE	> 500	–
DARK	> 500	–
DSTF	> 500	–
FSLSK	> 500	–
EPKVA	> 500	–
AHSPW	9.4	–
Cbz-HSPW [Cbz-HSPW]	–	> 500

More lines, now with the values ahead:

IC50 [µM]	Ki [µM]	Binder
82.5	–	PHSPW
–	> 500	CLDSTFC (disulfide 1-7) [cyc-LDSTF]
> 500	–	INDFL
> 500	–	SKSGQ
–	> 500	CLHSC (disulfide 1-5) [cyc-LHS]
> 500	–	LDSTF
> 500	–	RDLVD
–	> 500	CADARKC (disulfide 1-7) [cyc-ADARK]
–	> 500	For-LHSPW [For-LHSPW]
–	121	CLHSPC (disulfide 1-6) [cyc-LHSP]
–	24.7	CLHSPWC (disulfide 1-7) [cyc-LHSPW]
–	> 500	Suc-HSPW [Suc-HSPW]
10.6	–	LHSPW
–	> 500	CAHSPWC (disulfide 1-7) [cyc-AHSPW]
–	> 500	Suc-LHSPW [Suc-LHSPW]
–	> 500	CPHSPWC (disulfide 1-7) [cyc-PHSPW]
43.3	–	HSPW
–	> 500	For-HSPW [For-HSPW]
